Results taken from patent US12194080B2, “Methods for identification, assessment, prevention, and treatment of metabolic disorders using PM20D1 and N-lipidated amino acids” (Dana-Farber Cancer Institute, Inc., priority 2015, dated 2025).
Entries after “also recorded” stand apart in the source; their conditions may differ.

What was measured:
APOA1 = assay: FLAG immunoprecipitation of PM20D1-flag from primary brown fat cells with mass spectrometry identification; type: binding, mouse
Text: The mass spectrometry identification of the indicated proteins (PM20D1 or APOA1) are indicated to the right of the gel.

mouse PM20D1 [1] = biological target: T1, mouse PM20D1 (Mus musculus, UniProt Q8C165); assay: In vitro PM20D1-catalyzed N-acyl amino acid hydrolysis; type: biochemical; conditions: PBS, 37° C., 1.5 h
T1 construct: Full-length mouse Pm20d1 cDNA (GE Dharmacon) was subcloned with an in-frame C-terminal 6× His and FLAG® tag; made in house; host or cells: 293A (HEK293A) cells stably infected with retrovirus
T1 sequence (Q8C165 25-503): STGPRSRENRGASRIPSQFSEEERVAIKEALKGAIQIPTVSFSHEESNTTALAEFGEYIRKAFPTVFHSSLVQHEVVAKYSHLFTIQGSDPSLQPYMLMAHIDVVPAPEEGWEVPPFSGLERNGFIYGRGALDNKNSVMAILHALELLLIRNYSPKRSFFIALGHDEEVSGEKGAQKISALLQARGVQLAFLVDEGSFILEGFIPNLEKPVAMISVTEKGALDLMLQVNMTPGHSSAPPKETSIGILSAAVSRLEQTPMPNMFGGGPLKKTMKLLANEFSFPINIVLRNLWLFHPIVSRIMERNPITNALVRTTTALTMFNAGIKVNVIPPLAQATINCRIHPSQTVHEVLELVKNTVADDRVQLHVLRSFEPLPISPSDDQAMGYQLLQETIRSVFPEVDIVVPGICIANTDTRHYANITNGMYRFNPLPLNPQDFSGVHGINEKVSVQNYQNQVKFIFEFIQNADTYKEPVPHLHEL
Description: (§1) The concentrated media was centrifuged to remove debris (600×g, 10 min, 4° C.) and the supernatant containing PM20D1-flag was decanted into a new tube. PM20D1-Flag was immunoaffinity purified overnight at 4° C. from the concentrated media using magnetic Flag-M2 beads (Sigma Aldrich). The beads were collected, washed three times in PBS, eluted with 3× Flag peptide ([…] in PBS, Sigma Aldrich), aliquoted, and stored at −80° C. For the purification of human PM20D1-flag, hPM20D1-flag plasmid (Origene) was transiently transfected into 293A cells. After two days, the media was changed, harvested 24 h later, concentrated, and purified exactly as described above.
(§2) In vitro PM20D1-catalyzed synthesis of N-acyl amino acids was measured by incubating purified PM20D1 protein with oleate (1.5 mM) and phenylalanine (0.1 mM) in PBS (to 100 μl final volume) at 37° C. for 1.5 hrs. In vitro PM20D1-catalyzed N-acyl amino acid hydrolysis was measured by incubating purified PM20D1 protein with the indicated N-acyl amino acid (0.1 mM) in PBS (to 100 μl final volume) at 37° C. for 1.5 hrs. Reactions were terminated by placing the vials at −80° C. and the products generated in vitro were analyzed by mass spectroscopy (MS).
(§3) Briefly, frozen serum (30 μl) for polar metabolomic analyses were extracted in 160 μl of 1:1 acetonitrile/methanol with inclusion of internal standard D3, ^15N-serine (1 nmol). Activity assays (100 μl) were extracted in 400 μl 1:1 acetonitrile/methanol. Following 30 s of thorough vortexing and 1 min of bath sonication, the polar metabolite fraction (supernatant) was isolated by centrifugation at 13,000×g for 10 min. Ten μl of this supernatant was analyzed by SRM-based targeted LC-MS/MS, or untargeted LC-MS.
(§4) For separation of polar metabolites, normal-phase chromatography was performed with a […] column (50 mm×4.60 mm, Phenomenex). Mobile phases were as follows: Buffer A, acetonitrile; Buffer B, 95:5 water/acetonitrile with 0.1% formic acid or 0.2% ammonium hydroxide with 50 mM ammonium acetate for positive and negative ionization mode, respectively. The flow rate for each run started at 0.2 ml/min for 2 min, followed by a gradient starting at 0% B and increasing linearly to 100% B over the course of 15 min with a flow rate of 0.7 ml/min, followed by an isocratic gradient of 100% B for 10 min at 0.7 ml/min before equilibrating for 5 min at 0% B with a flow rate of 0.7 ml/min. MS analysis was performed with an electrospray ionization (ESI) source on an Agilent 6430 QQQ LC—MS/MS. The capillary voltage was set to 3.5 kV, and the fragmentor voltage was set to 100 V. The drying gas temperature was 325° C., the drying gas flow rate was 10 l/min, and the nebulizer pressure was 45 psi. For polar targeted and untargeted metabolomic analysis, representative metabolites were quantified by SRM of the transition from precursor to product ions (corresponding to amino acid fragment) at associated collision energies. Several representative fragmentation ions are as follows: C18:1-Ala, 352>88; C18:1-Gly, 338>74; C18:1-Phe, 428>164; C18:1-Leu/Ile, 394>130; C20:4-Phe, 450>164; C20:4-Leu/Ile, 416>130. Untargeted LC-MS was performed by scanning a mass range of m/z 50-1200, and data were exported as mzdata files and uploaded to XCMSOnline (xcmsserver.nutr.berkeley.edu) to identify metabolites that were differentially changed. For targeted metabolomics analysis, metabolites were quantified by integrating the area under the peak and were normalized to internal standard values corresponding to 1 nmol D3, ^15N-serine.

mouse PM20D1 [2] = biological target: T1, mouse PM20D1; assay: In vitro PM20D1-catalyzed synthesis of N-acyl amino acids; type: biochemical; conditions: PBS, 37° C., 1.5 h
Description: as §1, §2, §3, §4

B1: PM20D1: purified recombinant C-terminal 6xHis/flag-tagged mouse peptidase M20 domain containing 1, a secreted enzyme (protein, listed as Homo sapiens)
chain: MAQRCVCVLALVAMLLLVFPTVSRSMGPRSGEHQRASRIPSQFSKEERVAMKEALKGAIQIPTVTFSSEKSNTTALAEFGKYIHKVFPTVVSTSFIQHEVVEEYSHLFTIQGSDPSLQPYLLMAHFDVVPAPEEGWEVPPFSGLERDGIIYGRGTLDDKNSVMALLQALELLLIRKYIPRRSFFISLGHDEESSGTGAQRISALLQSRGVQLAFIVDEGGFILDDFIPNFKKPIALIAVSEKGSMNLMLQVNMTSGHSSAPPKETSIGILAAAVSRLEQTPMPIIFGSGTVVTVLQQLANEFPFPVNIILSNPWLFEPLISRFMERNPLTNAIIRTTTALTIFKAGVKFNVIPPVAQATVNFRIHPGQTVQEVLELTKNIVADNRVQFHVLSAFDPLPVSPSDDKALGYQLLRQTVQSVFPEVNITAPVTSIGNTDSRFFTNLTTGIYRFYPIYIQPEDFKRIHGVNEKISVQAYETQVKFIFELIQNADTDQEPVSHLHKL
modifications: C-terminal 6xHis/flag tag
notes: purified recombinant C-terminal 6xHis/flag-tagged mouse peptidase M20 domain containing 1, a secreted enzyme
- interaction with apolipoprotein 1 (APOA1) (APOA1): interacts with apolipoprotein 1 (APOA1)
- conversion in the hydrolase direction (mouse PM20D1 [1]; C18:1-Phe 100 μM, n=3): 94.0±0.8%
- N-acyl amino acid hydrolase activity (mouse PM20D1 [1]; C18:1-Phe as substrate): possessed enzymatic activity
- conversion in the synthase direction (mouse PM20D1 [2]; oleate 1.5 mM, Phe 100 μM, n=3): 1.2±0.1%
- N-acyl amino acid synthase activity (mouse PM20D1 [2]; oleate and Phe as substrates): Significant formation of C18:1-Phe; also recorded: possessed enzymatic activity
